Earlier results on one molecule are cited in PMC10814857, “Functional Classification and Interaction Selectivity Landscape of the Human SH3 Domain Superfamily” (Cells, 2024).

In general, Kd refers to the free concentration of one partner at which half of the binding sites on the other are occupied at equilibrium, for simple one-to-one binding.

For series [1], the target named is PACSIN1 SH3 domain. On the set-up: method as in ref [60] (a number printed in a supplementary file, which may have a reference list of its own: not looked up in the article's list). Particulars: PACSIN1, ITC, Table S4; ref [60].
Series [2] concerns the target bPIX (ARHGEF7) SH3 domain. Details: method as in 3 sources, one per row (each row's own in cited_ref): ref [33] (a number printed in a supplementary file, which may have a reference list of its own: not looked up in the article's list) ||| ref [60] (a number printed in a supplementary file, which may have a reference list of its own: not looked up in the article's list) ||| ref [34] (a number printed in a supplementary file, which may have a reference list of its own: not looked up in the article's list). Particulars: ITC, Table S4, ref [60]. (Isothermal titration calorimetry measures the heat released or taken up as one component is titrated into another.)

The target in series [3] is SH3GL2 (Endophilin-A1) SH3 domain. Particulars: ITC, Table S4, ref [60]. Here is the method:
page 6: […] […] […] PAK2 […] PXXXPR PXXXPR 1.05 ITC [34] TRSVI ITSN1-2 Synthetic […] Exceptional [W/F][R/W]xSx[A/ 53 ITC [29] peptide G][F/Y][L/V]xGP[ W/L] NCK1-2 N-WASP GP[…] … 147 HSQC [64] VA[…] 199 PLCG1 SOS1 AAPV[…] … 0.20mM SPR [75] AADS[…] 0.40mM AAES[…] 0.70mM AAIA[…] 0.28mM BAIAP2L1 EspFUR45 IPP[…] … 0.5 nM ITC [76] (IRTKS) 9 SORBS2- Synthetic […] Exceptional XRXGXAYLXYVX 38 ITC [29] 1 peptide Synthetic RL[…](L/P) ...

B1: PEDAGAGENRRVSGNNSPSLSNGGFKPSRPPRPSRPPPPTPRRPASVNGSPSATSESDGSSTG (peptide)
chain: PEDAGAGENRRVSGNNSPSLSNGGFKPSRPPRPSRPPPPTPRRPASVNGSPSATSESDGSSTG
notes: published Itch proline-rich peptide
Take B1: the figures for the Kd in series [1], in series [2] and in series [3] were 4.33 µM, 1.44 µM and 0.457 µM, respectively.
